Patent publication US20200299380A1 (published 2020)

T1: MICB-Fc (R&D Systems 1599-MB) (human, UniProt Q29980 23-298, limits assumed)
T1 construct: Bought; also called human MICB-Fc; not shown: Fc of the bought fusion protein
T1 sequence: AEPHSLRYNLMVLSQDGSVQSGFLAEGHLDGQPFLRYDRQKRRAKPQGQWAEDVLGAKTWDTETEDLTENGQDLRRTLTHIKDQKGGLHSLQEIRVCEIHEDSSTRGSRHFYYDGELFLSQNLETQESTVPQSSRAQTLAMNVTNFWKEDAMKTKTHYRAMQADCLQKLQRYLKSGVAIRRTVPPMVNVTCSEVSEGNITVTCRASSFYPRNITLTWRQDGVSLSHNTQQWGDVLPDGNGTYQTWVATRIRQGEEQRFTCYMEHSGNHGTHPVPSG

T2: MICA*007 expressed at the cell surface (human, UniProt Q29983 24-297)
T2 construct: also called C1R-MICA*007; C1R-MICA*07
T2 chain: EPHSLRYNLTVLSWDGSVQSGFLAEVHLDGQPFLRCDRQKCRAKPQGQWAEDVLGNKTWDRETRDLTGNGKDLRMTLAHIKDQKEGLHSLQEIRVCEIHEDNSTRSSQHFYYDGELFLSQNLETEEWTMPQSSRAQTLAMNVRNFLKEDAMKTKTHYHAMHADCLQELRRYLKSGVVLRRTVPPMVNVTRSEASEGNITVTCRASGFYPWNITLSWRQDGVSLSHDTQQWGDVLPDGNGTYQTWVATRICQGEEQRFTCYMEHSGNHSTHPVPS

T3: MICA*004 expressed at the cell surface (human, UniProt Q29983 24-297)
T3 construct: also called C1R-MICA*004; C1R-MICA*04
T3 chain: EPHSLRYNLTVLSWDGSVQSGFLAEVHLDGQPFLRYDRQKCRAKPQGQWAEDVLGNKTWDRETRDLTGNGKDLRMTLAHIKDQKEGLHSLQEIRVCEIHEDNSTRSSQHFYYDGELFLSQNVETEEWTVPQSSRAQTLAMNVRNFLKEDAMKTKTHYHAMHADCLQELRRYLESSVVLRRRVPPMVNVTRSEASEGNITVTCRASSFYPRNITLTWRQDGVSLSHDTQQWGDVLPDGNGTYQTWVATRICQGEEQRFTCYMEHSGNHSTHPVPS

T4: MICA*001 expressed at the cell surface (human, UniProt Q29983 24-297)
T4 construct: the protein on cells also has its transmembrane and cytoplasmic parts (Genbank AAB41060); also called C1R-MICA*001; C1R-MICA*01
T4 sequence: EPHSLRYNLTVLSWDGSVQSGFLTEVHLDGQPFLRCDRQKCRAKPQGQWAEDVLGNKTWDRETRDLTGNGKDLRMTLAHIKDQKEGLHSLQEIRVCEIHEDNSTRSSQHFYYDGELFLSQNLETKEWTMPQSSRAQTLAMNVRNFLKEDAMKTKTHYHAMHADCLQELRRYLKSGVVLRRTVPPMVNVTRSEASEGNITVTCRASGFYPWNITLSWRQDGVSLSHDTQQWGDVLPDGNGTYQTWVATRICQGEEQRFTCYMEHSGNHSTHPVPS

T5: MICA*008 expressed at the cell surface (human, UniProt Q29983 24-297)
T5 construct: also called C1R-MICA*008; C1R-MICA*08
T5 chain: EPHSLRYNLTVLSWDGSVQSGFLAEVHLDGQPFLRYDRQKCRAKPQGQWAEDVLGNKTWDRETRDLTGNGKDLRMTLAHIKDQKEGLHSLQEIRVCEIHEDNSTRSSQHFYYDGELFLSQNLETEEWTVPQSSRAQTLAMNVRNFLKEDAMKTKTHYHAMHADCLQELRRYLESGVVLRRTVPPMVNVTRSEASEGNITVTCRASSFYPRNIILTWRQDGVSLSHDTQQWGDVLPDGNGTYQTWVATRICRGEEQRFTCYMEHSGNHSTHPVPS

T6: MICA*001-BirA (human, UniProt Q29983 24-297)
T6 construct: also called MICA-BirA; MICA*01-BirA; not shown: BirA tag
T6 sequence: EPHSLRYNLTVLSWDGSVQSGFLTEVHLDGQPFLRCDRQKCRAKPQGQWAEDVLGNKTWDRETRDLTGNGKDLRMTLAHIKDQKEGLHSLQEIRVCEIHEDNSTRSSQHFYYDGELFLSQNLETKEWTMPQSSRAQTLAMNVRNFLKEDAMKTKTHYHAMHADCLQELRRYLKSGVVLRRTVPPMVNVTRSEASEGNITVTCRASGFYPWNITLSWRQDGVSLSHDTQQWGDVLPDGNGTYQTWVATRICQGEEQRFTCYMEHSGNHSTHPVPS

T7: human ULBP-2-Fc (R&D systems) (human, UniProt Q9BZM5 26-217, limits assumed)
T7 construct: Bought; not shown: Fc of the bought fusion protein
T7 sequence (looked up): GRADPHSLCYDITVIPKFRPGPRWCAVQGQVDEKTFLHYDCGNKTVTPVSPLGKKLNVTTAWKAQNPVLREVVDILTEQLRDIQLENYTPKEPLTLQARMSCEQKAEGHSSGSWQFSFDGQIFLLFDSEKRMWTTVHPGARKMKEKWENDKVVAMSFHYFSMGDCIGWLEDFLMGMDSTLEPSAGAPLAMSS

T8: human ULBP-1-Fc (R&D systems) (human, UniProt Q9BZM6 26-216, limits assumed)
T8 construct: Bought; not shown: Fc of the bought fusion protein
T8 sequence (looked up): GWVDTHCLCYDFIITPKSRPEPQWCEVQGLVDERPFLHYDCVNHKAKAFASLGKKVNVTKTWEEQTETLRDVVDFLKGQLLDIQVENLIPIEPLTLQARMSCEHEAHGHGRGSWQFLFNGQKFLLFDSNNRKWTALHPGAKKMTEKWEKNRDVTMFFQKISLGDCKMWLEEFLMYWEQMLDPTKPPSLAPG

T9: human ULBP-3-Fc (R&D systems) (human, UniProt Q9BZM4 30-217, limits assumed)
T9 construct: Bought; not shown: Fc of the bought fusion protein
T9 sequence (looked up): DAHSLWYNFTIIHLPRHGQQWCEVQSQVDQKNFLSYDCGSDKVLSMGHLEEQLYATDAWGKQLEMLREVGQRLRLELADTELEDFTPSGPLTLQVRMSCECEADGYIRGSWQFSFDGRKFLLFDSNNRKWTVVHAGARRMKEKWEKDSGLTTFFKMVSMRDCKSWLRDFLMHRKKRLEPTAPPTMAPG


Columns and labels:
[1] = target: T1, MICB-Fc (R&D Systems 1599-MB); assay: SPR, antibody at 10 µg/ml injected over immobilized MICB-Fc
Description: (§1) For cross-binding study, the human ULBP-1-Fc (R&D systems*), MICB-Fc (*), ULBP-2-Fc (*) and ULBP-3-Fc (*) recombinant proteins were covalently immobilized respectively on the flow cell one to four of a CM5 sensorchip. Anti-MICA antibodies (at a constant concentration of 10 μg/ml) were injected for 2 minutes at a flow rate of 10 μl/min onto the four flow cells in parallel. After each cycle, Sensorchip was regenerated by a five second injection of appropriate regeneration buffer.

[2] = target: T2, MICA*007 expressed at the cell surface; assay: flow cytometry on C1R transfectant cells, 4-parameter logistic fit
Description: (§2) The binding of antibodies obtained from the first, second and third immunization series (including CHG1-M-MIA-19E9, CHG1-M-MIA-9C10, CHG1-M-MIA-6E4, CHG1-M-MIA-20C6, CHG1-M-MIA-16A8, CHG1-M-MIA-12A10, CHG1-M-MIA-10A7, CHG1-M-MIA-18E8, CHG1-M-MIA-10F3, CHG1-M-MIA-15F9 and CHG1-M-MIA-14B4) were tested for binding to MICA-expressing CR1 transfectant cells C1R-MICA*001, C1R-MICA*004, C1R-MICA*007 and C1R-MICA*008 (Pr. A. Steinle, Eberhard-Karls University Tuebingen, Germany) described in Salih et al. (2003) Blood 102(4): […]. Binding was analyzed by flow cytometry.
(§3) Cells were harvested and stained in PBS 1×/BSA 0.2%/EDTA 2 mM buffer during 30 minutes at 4° C. using a dose-range of the anti-MICA mAbs. After two washes in staining buffer, cells were stained for 30 min at 4° C. with mouse anti-human IgG1-PE monoclonal antibodies (1/11). After two washes, stainings were acquired on a BD FACS Canto II and analyzed using the FlowJo software.
(§4) Antibodies CHG1-M-MIA-19E9, CHG1-M-MIA-9C10, CHG1-M-MIA-6E4, CHG1-M-MIA-20C6, CHG1-M-MIA-12A10, CHG1-M-MIA-10A7, CHG1-M-MIA-18E8, CHG1-M-MIA-10F3, and CHG1-M-MIA-15F9 bound to each of the C1R-MICA*001, C1R-MICA*004, C1R-MICA*007 and C1R-MICA*008 cells (see FIG. 1A for antibodies CHG1-M-MIA-19E9, CHG1-M-MIA-9C10, CHG1-M-MIA-6E4, CHG1-M-MIA-20C6, CHG1-M-MIA-12A10, CHG1-M-MIA-10F3, and FIG. 1B for antibodies, CHG1-M-MIA-18E8, CHG1-M-MIA-15F9, CHG1-M-MIA-10A7). […] EC50 values are shown in Table C in μg/ml (calculated using a 4-parameter logistic fit).

[3] = target: T3, MICA*004 expressed at the cell surface; assay: as above
Description: as §2, §3, §4

[4] = target: T4, MICA*001 expressed at the cell surface; assay: as above
Description: as §2, §3, §4

[5] = target: T5, MICA*008 expressed at the cell surface; assay: as above
Description: as §2, §3, §4

MICA*001-BirA = target: T6, MICA*001-BirA; assay: SPR single cycle kinetics, monovalent mean KD at pH 7.4, antibody captured on Protein-G chip, MICA-BirA injected
Description: For monovalent affinity measurement, chimeric anti-MICA antibodies were captured onto a Protein-G chip.
Affinities were determined using single cycle kinetics (SCK). SCK cycles were as follows: Successive 120s injections at 30 μl/min of 5 serial dilutions (0.01 to 100 nM) of MICA-His or MICA-BirA in ascending order (or of buffer for the blank injections to be subtracted during the analysis). After the last concentration is injected, complex is left to dissociate for 600s before regeneration by a 10s injection of appropriate regeneration buffer at 40 μl/min. After the regeneration, chip is left to stabilise for 60s in running buffer. Curves are fitted using Biacore T100 Evaluation software.

[6] = target: T7, human ULBP-2-Fc (R&D systems); assay: SPR, antibody injected over immobilized ULBP-2-Fc
Description: as §1

[7] = target: T8, human ULBP-1-Fc (R&D systems); assay: SPR, antibody injected over immobilized ULBP-1-Fc
Description: as §1

[8] = target: T9, human ULBP-3-Fc (R&D systems); assay: SPR, antibody injected over immobilized ULBP-3-Fc
Description: as §1

[9] = target: T4, MICA*001 expressed at the cell surface; assay: cell-based or functional assay

binding result [1] | EC50 [2] [µg/mL] | EC50 [3] [µg/mL] | EC50 [4] [µg/mL] | EC50 [5] [µg/mL] | Kd (MICA*001-BirA) [nM] | binding result [6] | binding result [7] | binding result [8] | CDC: EC50 of the increase in dead (7-AAD positive) Raji-MICA*01 cells with human complement [9] [µg/mL] | Binder
binds | 0.94 | 0.17 | 0.47 | 0.26 | 8.3 |  |  |  |  | CHG1-M-MIA-10F3 (antibody, human IgG1, V domains shown, the VH entry ends with ASTK) VH: QVQLQQSAAELARPGASVKMSCKASGYTFTSYTMHWVKQRPGQGLEWIGYINPSSGYTEYNQKFKDKTTLTVDKSSTTSYMQLSSLTSDNSAVYYCARGGDWDVDWFVYWGQGTLVTVSA VL: QIVLTQSPAIMSASPGEKVTITCSASSSISYMHWFQQKPGTSPKLWIYSTSKLASGVPARFSGSGSGTSHSLTISRMEAEDAATYYCQHRSTYPFTFGSGTKLEIK
 | 2.83 | 0.13 | 2.09 | 0.13 |  | no binding (tested: 10 µg/ml) | no binding (tested: 10 µg/ml) | no binding (tested: 10 µg/ml) | 2 | CHG1-M-MIA-9C10 (antibody, human IgG1, V domains shown, also called chimeric anti-MICA 9C10) VH: QVQLQQPGAELVRPGTSVNLSCKASGYSFTRYWMNWVKQRPGQGLEWIGMIHPSDSETRLNQKFKDKATLTVDKSSSTAYMQLSSPTSEDSAVYYCGYGNFFYVMDYWGQGTSVTVSS VL: DILLTQSPAILSVSPGERVSFSCRASQSIGTSIHWYQQRTNGSPRLLIKFASESISGIPSRFSGSGSGTDFTLNINSVESEDIADYYCQQSNFWPFTFGSGTKLEVK
